Where two headings read alike, the source gives them in different places.
Experiments:
TβRII ECD (Homo sapiens) = TβRII ECD (Homo sapiens) (UniProt P37173); conditions: cited from earlier work
human TGF-β2 (human) [1] = test: SPR
[2] = target: TGF-β2DM:TβRII binary complex (human) (UniProt P37173); test: SEC-MALS
human TGF-β2 (human) [3] = test: SPR; remark: listed apart in the source

Chain of TβRII ECD (Homo sapiens) (P37173 23-166): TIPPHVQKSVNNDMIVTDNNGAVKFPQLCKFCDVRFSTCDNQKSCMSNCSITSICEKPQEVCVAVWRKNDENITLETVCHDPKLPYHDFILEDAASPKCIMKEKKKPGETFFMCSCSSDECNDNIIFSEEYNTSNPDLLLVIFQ

For TGF-β2 (from UniProt P61812), the Kd (TβRII ECD (Homo sapiens)) is given as 20000 nM.
In the case of “full-length zebrafish betaglycan ectodomain (domain or fragment)”, the Kd (human TGF-β2 (human) [1]) is reported as 4.95 nM, the koff (human TGF-β2 (human) [1]) is reported as 0.00173 s⁻¹ and the kon (human TGF-β2 (human) [1]) is reported as 350000 M⁻¹ s⁻¹. For the same substance, the stoichiometry N (BG (O-ZP) per TGF-β2DM dimer) [2] was 1.
For “zebrafish betaglycan ZP-C domain (domain or fragment)”, the KD1 (heterogeneous-ligand fit, ligand class 1) (human TGF-β2 (human) [1]) was 1100 nM, the KD2 (heterogeneous-ligand fit, ligand class 2) (human TGF-β2 (human) [1]) was 480 nM and the ka1 (heterogeneous-ligand fit, ligand class 1) (human TGF-β2 (human) [1]) was 480000 M⁻¹ s⁻¹. The kd1 (heterogeneous-ligand fit, ligand class 1) (human TGF-β2 (human) [1]) was 0.51 s⁻¹ and the kd2 (heterogeneous-ligand fit, ligand class 2) (human TGF-β2 (human) [1]) was 9300 s⁻¹.
Substance “zebrafish betaglycan orphan domain (domain or fragment)” has a Kd (human TGF-β2 (human) [1]) of 27 nM, a koff (human TGF-β2 (human) [1]) of 0.0288 s⁻¹ and a kon (human TGF-β2 (human) [1]) of 1.07e+06 M⁻¹ s⁻¹. The stoichiometry N (BGO per TGF-β2DM dimer) [2] was 1, the Kd (human TGF-β2 (human) [3]) was 15 nM and the koff (human TGF-β2 (human) [3]) was 0.00772 s⁻¹. It also gave a kon (human TGF-β2 (human) [3]) of 528000 M⁻¹ s⁻¹.

— paper PMC6726503
